Where two headings read alike, the source gives them in different places. *1 amine or outer side, *2 acyl side, *3 side chain or, on linkers, in order; H or OH if unused. Where no end group is shown, it is not given here. Side-chain parts run from the residue outwards. [ ]: non-standard residue; d: D form. The star is where a group is joined. γGlu = O=C(O)[C@H](CCC(=O)[*:2])N[*:1]; Palmitoyl = CCCCCCCCCCCCCCCC(=O)*; Suc = O=C(CCC(=O)[*:2])[*:1]; Aib = CC(C)(N)C(=O)O; βAla = NCCC(=O)O
Key:
Experiment in all cases: cell-based or functional assay
glucagon receptor [1] = molecular target: T1, glucagon receptor (UniProt P47871 26-477, limits assumed)
T1 sequence (P47871 26-477 limits assumed): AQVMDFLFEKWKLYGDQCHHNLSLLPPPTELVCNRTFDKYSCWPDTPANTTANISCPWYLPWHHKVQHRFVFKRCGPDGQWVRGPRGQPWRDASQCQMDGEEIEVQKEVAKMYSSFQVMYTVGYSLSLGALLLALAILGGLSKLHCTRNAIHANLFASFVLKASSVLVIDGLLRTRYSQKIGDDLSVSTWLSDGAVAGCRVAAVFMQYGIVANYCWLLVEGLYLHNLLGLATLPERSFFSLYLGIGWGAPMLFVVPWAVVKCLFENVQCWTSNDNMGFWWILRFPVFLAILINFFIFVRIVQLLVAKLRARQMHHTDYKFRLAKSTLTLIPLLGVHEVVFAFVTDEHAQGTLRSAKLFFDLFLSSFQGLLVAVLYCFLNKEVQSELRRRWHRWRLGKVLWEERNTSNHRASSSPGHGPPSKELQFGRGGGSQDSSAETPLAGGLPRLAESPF

GIP receptor [2] = molecular target: T2, GIP receptor (UniProt P48546 22-466, limits assumed)
T2 sequence (looked up): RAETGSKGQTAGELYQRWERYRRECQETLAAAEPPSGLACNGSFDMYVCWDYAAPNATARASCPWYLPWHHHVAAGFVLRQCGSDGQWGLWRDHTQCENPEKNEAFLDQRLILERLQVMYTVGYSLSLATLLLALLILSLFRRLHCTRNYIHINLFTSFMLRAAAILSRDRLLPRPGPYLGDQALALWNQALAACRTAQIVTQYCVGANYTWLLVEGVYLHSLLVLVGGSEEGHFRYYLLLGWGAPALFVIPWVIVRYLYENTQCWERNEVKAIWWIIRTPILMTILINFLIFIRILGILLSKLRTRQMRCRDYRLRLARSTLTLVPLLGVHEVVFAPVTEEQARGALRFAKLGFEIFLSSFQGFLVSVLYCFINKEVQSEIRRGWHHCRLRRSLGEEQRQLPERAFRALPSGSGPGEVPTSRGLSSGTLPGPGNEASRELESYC

GLP-1 receptor [3] = molecular target: T3, GLP-1 receptor (UniProt P43220 24-463, limits assumed)
Target sequence in this assay (P43220 24-463 limits assumed): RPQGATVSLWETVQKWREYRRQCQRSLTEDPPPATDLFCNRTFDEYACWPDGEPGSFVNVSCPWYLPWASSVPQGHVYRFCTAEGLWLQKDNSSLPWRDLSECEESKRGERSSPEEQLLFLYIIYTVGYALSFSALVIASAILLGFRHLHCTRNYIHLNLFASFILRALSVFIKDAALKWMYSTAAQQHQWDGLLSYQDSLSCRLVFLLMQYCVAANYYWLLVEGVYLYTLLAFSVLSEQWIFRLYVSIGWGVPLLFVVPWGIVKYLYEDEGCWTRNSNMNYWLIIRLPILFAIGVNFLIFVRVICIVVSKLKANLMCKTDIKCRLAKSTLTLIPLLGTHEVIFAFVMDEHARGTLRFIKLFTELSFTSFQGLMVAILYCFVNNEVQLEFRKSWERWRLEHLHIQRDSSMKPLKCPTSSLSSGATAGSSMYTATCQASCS

glucagon receptor [4] = molecular target: T1, glucagon receptor; remark: listed apart in the source
GIP receptor [5] = molecular target: T2, GIP receptor; remark: listed apart in the source
GLP-1 receptor [6] = molecular target: T3, GLP-1 receptor; remark: listed apart in the source
glucagon receptor [7] = molecular target: T1, glucagon receptor; remark: listed apart in the source
GIP receptor [8] = molecular target: T2, GIP receptor; remark: listed apart in the source
GLP-1 receptor [9] = molecular target: T3, GLP-1 receptor; remark: listed apart in the source
glucagon receptor [10] = molecular target: T1, glucagon receptor; remark: listed apart in the source
GIP receptor [11] = molecular target: T2, GIP receptor; remark: listed apart in the source
GLP-1 receptor [12] = molecular target: T3, GLP-1 receptor; remark: listed apart in the source
glucagon receptor [13] = molecular target: T1, glucagon receptor; remark: listed apart in the source
GIP receptor [14] = molecular target: T2, GIP receptor; remark: listed apart in the source
GLP-1 receptor [15] = molecular target: T3, GLP-1 receptor; remark: listed apart in the source

B1: peptide of SEQ ID NO: 140 (peptide)
peptide: Y[Aib]EGTFTSDYSIYLDKQAA[Aib]EFVNWLLAGGPSSGAPPPSK([Suc-Palmitoyl])G-NH2
EC50 (cAMP reporter) (glucagon receptor [1]): 77 pM
EC50 (cAMP reporter) (GIP receptor [2]): 1 pM
EC50 (cAMP reporter) (GLP-1 receptor [3]): 1 pM

B2: peptide of SEQ ID NO: 203 (peptide)
peptide: H[Aib]QGTFTSDYSKYLDERAAQDFVQWLLAGGPSSGAPPPSK([γGlu-γGlu-Palmitoyl])G-NH2
EC50 (cAMP reporter) (glucagon receptor [4]): 3 pM
EC50 (cAMP reporter) (GIP receptor [5]): 7 pM
EC50 (cAMP reporter) (GLP-1 receptor [6]): 1 pM

B3: peptide of SEQ ID NO: 141 (peptide)
peptide: Y[Aib]EGTFTSDYSIYLDKQAA[Aib]EFVNWLLAGGPSSGAPPPSK([βAla-Suc-Palmitoyl])G-NH2
EC50 (cAMP reporter) (glucagon receptor [1]): 58 pM
EC50 (cAMP reporter) (GIP receptor [2]): 2 pM
EC50 (cAMP reporter) (GLP-1 receptor [3]): 1 pM

B4: dual acylated peptide of SEQ ID NO: 160 (peptide)
peptide: HXQGTFTSDKSKYLDERAAQDFVQWLLDGGPSSGAPPPS
modifications: aib at 2; Lys10 carrying two acylations in a branched formation, K*K(rEC16)2; amide
EC50 (cAMP, nmole) (glucagon receptor [7]): 0.024 nmol
EC50 (cAMP, nmole) (GIP receptor [8]): 0.015 nmol
EC50 (cAMP, nmole) (GLP-1 receptor [9]): 0.007 nmol

B5: dual acylated peptide of SEQ ID NO: 162 (peptide)
peptide: HXQGTFTSDKSKYLDERAAQDFVQWLLDGGPSSGAPPPS
modifications: aib at 2; Lys10 carrying two acylations in a linear formation, K*(C12-rEC16); amide
EC50 (cAMP, nmole) (glucagon receptor [7]): 0.008 nmol
EC50 (cAMP, nmole) (GIP receptor [8]): 0.033 nmol
EC50 (cAMP, nmole) (GLP-1 receptor [9]): 0.003 nmol

B6: dual acylated peptide of SEQ ID NO: 161 (peptide)
peptide: H[Aib]QGTFTSDYSKYLDERAAQDFVQWLLDGGPSSGAPPPSK-NH2
modifications: also: Lys40 branched dual acylation K*K(γE-C16)2
EC50 (cAMP, nmole) (glucagon receptor [7]): 0.011 nmol
EC50 (cAMP, nmole) (GIP receptor [8]): 0.01 nmol
EC50 (cAMP, nmole) (GLP-1 receptor [9]): 0.007 nmol

B7: peptide of SEQ ID NO: 143 (peptide)
peptide: YXEGTFTSDXSIYLDKQAAXEFVNWLLAGGPSSGAPPPS
modifications: aib at 2 and 20; 4-aminoPhe at 10 acylated F(4-aminoγEγEC16); NH2
EC50 (cAMP reporter) (glucagon receptor [1]): 165 pM
EC50 (cAMP reporter) (GIP receptor [2]): 3 pM
EC50 (cAMP reporter) (GLP-1 receptor [3]): 2 pM

B8: peptide of SEQ ID NO: 144 (peptide)
peptide: YXEGTFTSDXSIYLDKQAAXEFVNWLLAGGPSSGAPPPS
modifications: aib at 2 and 20; 4-aminoPhe at 10, F(4amino-succinoylC16); NH2
EC50 (cAMP reporter) (glucagon receptor [1]): > 500 pM
EC50 (cAMP reporter) (GIP receptor [2]): 13 pM
EC50 (cAMP reporter) (GLP-1 receptor [3]): 4 pM

B9: peptide of SEQ ID NO: 207 (peptide)
peptide: H[Aib]QGTFTSDK([γGlu-γGlu-Palmitoyl])SKYLDERAAQDFVQWLLDGGPSSGAPPPSG-NH2
modifications: N-terminus assumed
SMILES: CCCCCCCCCCCCCCCC(=O)N[C@@H](CCC(=O)N[C@@H](CCC(=O)NCCCC[C@H](NC(=O)[C@H](CC(=O)O)NC(=O)[C@H](CO)NC(=O)[C@@H](NC(=O)[C@H](Cc1ccccc1)NC(=O)[C@@H](NC(=O)CNC(=O)[C@H](CCC(N)=O)NC(=O)C(C)(C)NC(=O)[C@@H](N)Cc1c[nH]cn1)[C@@H](C)O)[C@@H](C)O)C(=O)N[C@@H](CO)C(=O)N[C@@H](CCCCN)C(=O)N[C@@H](Cc1ccc(O)cc1)C(=O)N[C@@H](CC(C)C)C(=O)N[C@@H](CC(=O)O)C(=O)N[C@@H](CCC(=O)O)C(=O)N[C@@H](CCCNC(=N)N)C(=O)N[C@@H](C)C(=O)N[C@@H](C)C(=O)N[C@@H](CCC(N)=O)C(=O)N[C@@H](CC(=O)O)C(=O)N[C@@H](Cc1ccccc1)C(=O)N[C@H](C(=O)N[C@@H](CCC(N)=O)C(=O)N[C@@H](Cc1c[nH]c2ccccc12)C(=O)N[C@@H](CC(C)C)C(=O)N[C@@H](CC(C)C)C(=O)N[C@@H](CC(=O)O)C(=O)NCC(=O)NCC(=O)N1CCC[C@H]1C(=O)N[C@@H](CO)C(=O)N[C@@H](CO)C(=O)NCC(=O)N[C@@H](C)C(=O)N1CCC[C@H]1C(=O)N1CCC[C@H]1C(=O)N1CCC[C@H]1C(=O)N[C@@H](CO)C(=O)NCC(N)=O)C(C)C)C(=O)O)C(=O)O
EC50 (cAMP reporter) (glucagon receptor [4]): 5 pM
EC50 (cAMP reporter) (GIP receptor [5]): 15 pM
EC50 (cAMP reporter) (GLP-1 receptor [6]): 2 pM

B10: peptide of SEQ ID NO: 142 (peptide)
peptide: Y[Aib]EGTFTSDYSIYLDKQAA[Aib]EFVNWLLAGGPSSGAPPPSK([Suc-C18])G-NH2
EC50 (cAMP reporter) (glucagon receptor [1]): 121 pM
EC50 (cAMP reporter) (GIP receptor [2]): 1 pM
EC50 (cAMP reporter) (GLP-1 receptor [3]): 4 pM

B11: peptide of SEQ ID NO: 204 (peptide)
peptide: H[Aib]QGTFTSDYSKYLDERAAQDFVQWLLDAGPSSGAPPPSK([γGlu-γGlu-Palmitoyl])G-NH2
EC50 (cAMP reporter) (glucagon receptor [4]): 3 pM
EC50 (cAMP reporter) (GIP receptor [5]): 69 pM
EC50 (cAMP reporter) (GLP-1 receptor [6]): 1 pM

B12: peptide of SEQ ID NO: 205 (peptide)
peptide: H[Aib]QGTFTSDK([γGlu-Palmitoyl])SKYLDERAAQDFVQWLLDGGPSSGAPPPSG-NH2
modifications: N-terminus assumed
SMILES: CCCCCCCCCCCCCCCC(=O)N[C@@H](CCC(=O)NCCCC[C@H](NC(=O)[C@H](CC(=O)O)NC(=O)[C@H](CO)NC(=O)[C@@H](NC(=O)[C@H](Cc1ccccc1)NC(=O)[C@@H](NC(=O)CNC(=O)[C@H](CCC(N)=O)NC(=O)C(C)(C)NC(=O)[C@@H](N)Cc1c[nH]cn1)[C@@H](C)O)[C@@H](C)O)C(=O)N[C@@H](CO)C(=O)N[C@@H](CCCCN)C(=O)N[C@@H](Cc1ccc(O)cc1)C(=O)N[C@@H](CC(C)C)C(=O)N[C@@H](CC(=O)O)C(=O)N[C@@H](CCC(=O)O)C(=O)N[C@@H](CCCNC(=N)N)C(=O)N[C@@H](C)C(=O)N[C@@H](C)C(=O)N[C@@H](CCC(N)=O)C(=O)N[C@@H](CC(=O)O)C(=O)N[C@@H](Cc1ccccc1)C(=O)N[C@H](C(=O)N[C@@H](CCC(N)=O)C(=O)N[C@@H](Cc1c[nH]c2ccccc12)C(=O)N[C@@H](CC(C)C)C(=O)N[C@@H](CC(C)C)C(=O)N[C@@H](CC(=O)O)C(=O)NCC(=O)NCC(=O)N1CCC[C@H]1C(=O)N[C@@H](CO)C(=O)N[C@@H](CO)C(=O)NCC(=O)N[C@@H](C)C(=O)N1CCC[C@H]1C(=O)N1CCC[C@H]1C(=O)N1CCC[C@H]1C(=O)N[C@@H](CO)C(=O)NCC(N)=O)C(C)C)C(=O)O
EC50 (cAMP reporter) (glucagon receptor [4]): 5 pM
EC50 (cAMP reporter) (GIP receptor [5]): 4 pM
EC50 (cAMP reporter) (GLP-1 receptor [6]): 2 pM

B13: peptide of SEQ ID NO: 139 (peptide)
peptide: Y[Aib]EGTFTSDYSIYLDKQAA[Aib]EFVNWLLAGGPSSGAPPPSK(Palmitoyl)G-NH2
EC50 (cAMP reporter) (glucagon receptor [1]): 203 pM
EC50 (cAMP reporter) (GIP receptor [2]): 1 pM
EC50 (cAMP reporter) (GLP-1 receptor [3]): 5 pM

B14: Analog No. 37: Aib2, K10acyl, E16, Aib20, E21, L27, D28 (SEQ ID NO: 31) (peptide)
peptide: H[Aib]QGTFTSDK([γGlu-Palmitoyl])SKYLDERRA[Aib]EFVQWLLDT-NH2
modifications: N-terminus assumed
SMILES: CCCCCCCCCCCCCCCC(=O)N[C@@H](CCC(=O)NCCCC[C@H](NC(=O)[C@H](CC(=O)O)NC(=O)[C@H](CO)NC(=O)[C@@H](NC(=O)[C@H](Cc1ccccc1)NC(=O)[C@@H](NC(=O)CNC(=O)[C@H](CCC(N)=O)NC(=O)C(C)(C)NC(=O)[C@@H](N)Cc1c[nH]cn1)[C@@H](C)O)[C@@H](C)O)C(=O)N[C@@H](CO)C(=O)N[C@@H](CCCCN)C(=O)N[C@@H](Cc1ccc(O)cc1)C(=O)N[C@@H](CC(C)C)C(=O)N[C@@H](CC(=O)O)C(=O)N[C@@H](CCC(=O)O)C(=O)N[C@@H](CCCNC(=N)N)C(=O)N[C@@H](CCCNC(=N)N)C(=O)N[C@@H](C)C(=O)NC(C)(C)C(=O)N[C@@H](CCC(=O)O)C(=O)N[C@@H](Cc1ccccc1)C(=O)N[C@H](C(=O)N[C@@H](CCC(N)=O)C(=O)N[C@@H](Cc1c[nH]c2ccccc12)C(=O)N[C@@H](CC(C)C)C(=O)N[C@@H](CC(C)C)C(=O)N[C@@H](CC(=O)O)C(=O)N[C@H](C(N)=O)[C@@H](C)O)C(C)C)C(=O)O
EC50 (cAMP reporter) (glucagon receptor [10]): 8 pM
EC50 (cAMP reporter) (GIP receptor [11]): 8 pM
EC50 (cAMP reporter) (GLP-1 receptor [12]): 4.4 pM
EC50 (cAMP reporter) (glucagon receptor [13]): 8 pM
EC50 (cAMP reporter) (GIP receptor [14]): 8 pM
EC50 (cAMP reporter) (GLP-1 receptor [15]): 4.4 pM
